Paper PMC10793500, “Structural insights into RNA cleavage by a novel family of bacterial RNases” (Research Square, 2023)

Biological target: the molecule itself
Assay: crystal structure; apo YicC; hanging drop vapor diffusion, 0.1M Tris pH 8.5, 0.3M lithium sulfate, 25% PEG 3350; six copies in the asymmetric unit

B1: YicC (E. coli endoribonuclease, proposed name RNase CS) (enzyme, UniProt P23839 1-287, looked up)
chain: MIRSMTAYARREIKGEWGSATWEMRSVNQRYLETYFRLPEQFRSLEPVVRERIRSRLTRGKVECTLRYEPDVSAQGELILNEKLAKQLVTAANWVKMQSDEGEINPVDILRWPGVMAAQEQDLDAIAAEILAALDGTLDDFIVARETEGQALKALIEQRLEGVTAEVVKVRSHMPEILQWQRERLVAKLEDAQVQLENNRLEQELVLLAQRIDVAEELDRLEAHVKETYNILKKKEAVGRRLDFMMQEFNRESNTLASKSINAEVTNSAIELKVLIEQMREQIQNIE
notes: YicC of E. coli, the prototypical member of the YicC family of endoribonucleases; Expressed from a modified pET47b vector; also called apo YicC; source: E. coli (culture of EG1261, IPTG induced), purified (Ni-NTA, SUMO-protease cleavage, Superdex 200; for cryo-EM also Hitrap Q)
stoichiometry N: 6
